Data reported in patent publication US20080274905A1 (TRUSTEES OF COLUMBIA UNIVERSITY IN THE CITY OF NEW YORK, published 2008).

Columns and labels:
[1] = target: the molecule itself; test: cryo-electron microscopy of fluorescent Rad51 (self-association into rings)
Excerpt: The biochemically active form of Rad51 and related recombinases is an extended helical filament bound to DNA (P8, P33). Cyro-electron microscopy was used to determine whether the fluorescently tagged version of Rad51 formed structures consistent with the known forms of the wild-type protein. First, fluorescent Rad51 was mixed with double-stranded, linearized φX174 in the presence of ATP. The reaction mixes were then applied to a carbon-coated grid, flash frozen in liquid ethane, and visualized with cryo-EM (P9). […] In addition, the protein that was not bound to the DNA molecules was present as a ring-like structure, as previously reported (P16). Rad511 and several closely related proteins, are known to form ring-like structures under various reaction conditions and it is thought that these rings contain from 6-8 monomers of protein (P13-P15, P34, P35).

[2] = target: the molecule itself; test: two-colour quantum dot labeling of Rdh54 complexes on DNA curtains, TIRFM colocalisation (self-association)

Protein	binding result [1]	binding result [2]
fluorescently tagged human Rad51 (A11C Rad51 labeled with Alexa Fluor 555-maleimide) (enzyme, UniProt Q06609 1-339, looked up, Alexa Fluor 555-maleimide on Cys 11 (A11C), also called fluorescent Rad51; Alexa Fluor 555-Rad51) MAMQMQLEANCDTSVEEESFGPQPISRLEQSGINANDVKKLEEAGFHTVEAVAYAPKKELINIKGISEAKADKILAEAAKLVPMGFTTATEFHQRRSEIIQITTGSKELDKLLQGGIETGSITEMFGEFRTGKTQICHTLAVTCQLPIDRGGGEGKAMYIDTEGTFRPERLLAVAERYGLSGSDVLDNVAYARAFNTDHQTQLLYQASAMMVESRYALLIVDSATALYRTDYSGRGELSARQMHLARFLRMLLRLADEFGVAVVITNQVVAQVDGAAMFAADPKKPIGGNIIAHASTTRLYLRKGRGETRISKIYDSPSLPEAEAMFAINADGVGDAKD	binds	–
Rdh54 (Rad homolog 54), yeast Snf2-related homologous recombination factor (enzyme, UniProt P38086 1-958, looked up, also called Tid1) MAVISVKPRRREKILQEVKNSSVYQTVFDSGTTQMQIPKYENKPFKPPRRVGSNKYTQLKPTATAVTTAPISKAKVTVNLKRSISAGPTLNLAKKPNNLSSNENTRYFTIMYRKPTTKKHKTWSGDGYATLKASSDKLCFYNEAGKFLGSSMLPSDSDSLFETLFKAGSNEVQLDYELKENAEIRSAKEALSQNMGNPSPPTTSTTETVPSTKNDGGKYQMPLSQLFSLNTVKRFKSVTKQTNEHMTTVPKTSQNSKAKKYYPVFDVNKIDNPIVMNKNAAAEVDVIVDPLLGKFLRPHQREGVKFMYDCLMGLARPTIENPDIDCTTKSLVLENDSDISGCLLADDMGLGKTLMSITLIWTLIRQTPFASKVSCSQSGIPLTGLCKKILVVCPVTLIGNWKREFGKWLNLSRIGVLTLSSRNSPDMDKMAVRNFLKVQRTYQVLIIGYEKLLSVSEELEKNKHLIDMLVCDEGHRLKNGASKILNTLKSLDIRRKLLLTGTPIQNDLNEFFTIIDFINPGILGSFASFKRRFIIPITRARDTANRYNEELLEKGEERSKEMIEITKRFILRRTNAILEKYLPPKTDIILFCKPYSQQILAFKDILQGARLDFGQLTFSSSLGLITLLKKVCNSPGLVGSDPYYKSHIKDTQSQDSYSRSLNSGKLKVLMTLLEGIRKGTKEKVVVVSNYTQTLDIIENLMNMAGMSHCRLDGSIPAKQRDSIVTSFNRNPAIFGFLLSAKSGGVGLNLVGASRLILFDNDWNPSVDLQAMSRIHRDGQKKPCFIYRLVTTGCIDEKILQRQLMKNSLSQKFLGDSEMRNKESSNDDLFNKEDLKDLFSVHTDTKSNTHDLICSCDGLGEEIEYPETNQQQNTVELRKRSTTTWTSALDLQKKMNEAATNDDAKKSQYIRQCLVHYKHIDPARQDELFDEVITDSFTELKDSITFAFVKPGEICLREQ	–	binds
